Experimental data published in ChEMBL document CHEMBL2074368, “Kinetic analysis of calcein and calcein-acetoxymethylester efflux mediated by the multidrug resistance protein and P-glycoprotein” (Biochemistry, 1998).

How the values were obtained:
[1] = substrate: CC(=O)OCOC(=O)CN(CC(=O)OCOC(C)=O)Cc1c(OC(C)=O)ccc2c1Oc1c(ccc(OC(C)=O)c1CN(CC(=O)OCOC(C)=O)CC(=O)OCOC(C)=O)C21OC(=O)c2ccccc21; assay: (§1) TP_TRANSPORTER: efflux in GLC4/ADR cells; format: functional, cell-based, GLC-4/ADR
[2] = substrate: O=C(O)CN(CC(=O)O)Cc1cc2c(cc1O)Oc1cc(O)c(CN(CC(=O)O)CC(=O)O)cc1C21OC(=O)c2ccccc21; assay: as §1; format: functional, cell-based, GLC-4/ADR

B1: Multidrug resistance-associated protein 1 (Homo sapiens) (protein)
chain: MALRGFCSADGSDPLWDWNVTWNTSNPDFTKCFQNTVLVWVPCFYLWACFPFYFLYLSRHDRGYIQMTPLNKTKTALGFLLWIVCWADLFYSFWERSRGIFLAPVFLVSPTLLGITMLLATFLIQLERRKGVQSSGIMLTFWLVALVCALAILRSKIMTALKEDAQVDLFRDITFYVYFSLLLIQLVLSCFSDRSPLFSETIHDPNPCPESSASFLSRITFWWITGLIVRGYRQPLEGSDLWSLNKEDTSEQVVPVLVKNWKKECAKTRKQPVKVVYSSKDPAQPKESSKVDANEEVEALIVKSPQKEWNPSLFKVLYKTFGPYFLMSFFFKAIHDLMMFSGPQILKLLIKFVNDTKAPDWQGYFYTVLLFVTACLQTLVLHQYFHICFVSGMRIKTAVIGAVYRKALVITNSARKSSTVGEIVNLMSVDAQRFMDLATYINMIWSAPLQVILALYLLWLNLGPSVLAGVAVMVLMVPVNAVMAMKTKTYQVAHMKSKDNRIKLMNEILNGIKVLKLYAWELAFKDKVLAIRQEELKVLKKSAYLSAVGTFTWVCTPFLVALCTFAVYVTIDENNILDAQTAFVSLALFNILRFPLNILPMVISSIVQASVSLKRLRIFLSHEELEPDSIERRPVKDGGGTNSITVRNATFTWARSDPPTLNGITFSIPEGALVAVVGQVGCGKSSLLSALLAEMDKVEGHVAIKGSVAYVPQQAWIQNDSLRENILFGCQLEEPYYRSVIQACALLPDLEILPSGDRTEIGEKGVNLSGGQKQRVSLARAVYSNADIYLFDDPLSAVDAHVGKHIFENVIGPKGMLKNKTRILVTHSMSYLPQVDVIIVMSGGKISEMGSYQELLARDGAFAEFLRTYASTEQEQDAEENGVTGVSGPGKEAKQMENGMLVTDSAGKQLQRQLSSSSSYSGDISRHHNSTAELQKAEAKKEETWKLMEADKAQTGQVKLSVYWDYMKAIGLFISFLSIFLFMCNHVSALASNYWLSLWTDDPIVNGTQEHTKVRLSVYGALGISQGIAVFGYSMAVSIGGILASRCLHVDLLHSILRSPMSFFERTPSGNLVNRFSKELDTVDSMIPEVIKMFMGSLFNVIGACIVILLATPIAAIIIPPLGLIYFFVQRFYVASSRQLKRLESVSRSPVYSHFNETLLGVSVIRAFEEQERFIHQSDLKVDENQKAYYPSIVANRWLAVRLECVGNCIVLFAALFAVISRHSLSAGLVGLSVSYSLQVTTYLNWLVRMSSEMETNIVAVERLKEYSETEKEAPWQIQETAPPSSWPQVGRVEFRNYCLRYREDLDFVLRHINVTINGGEKVGIVGRTGAGKSSLTLGLFRINESAEGEIIIDGINIAKIGLHDLRFKITIIPQDPVLFSGSLRMNLDPFSQYSDEEVWTSLELAHLKDFVSALPDKLDHECAEGGENLSVGQRQLVCLARALLRKTKILVLDEATAAVDLETDDLIQSTIRTQFEDCTVLTIAHRLNTIMDYTRVIVLDKGEIQEYGAPSDLLQQRGLFYSMAKDAGLV
[1]
  Km: 0.05 µM
[2]
  Km: 268 µM
